Measured values taken from the supplement of paper PMC10126150.
± gives the standard deviation of the averaged measurements.

System: ATP
Assay: switch fluorescence ratio, 500 uM ATP over buffer (Cy3 cluster intensity, sum of 5 cycles each) (fold (ratio)); higher = stronger signal-on switching upon ATP binding; sequences stand for … in TCGTCGGCAGCGTCAGATGTGTATAAGAGACAGTTTTTTTTTTTTTTTTTTTTTTTTT…TC
Settings: aptamer strand: ATP DNA aptamer (quencher-CACCTGGGGGAGTATTGCGGAGGAAGG + anchor), 100 nM annealed; ATP concentration: 500 uM
Procedure, shortened: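 The fluorescence ratio divides summed target-cycle Cy3 intensity by summed buffer-cycle Cy3 intensity for each cluster and is averaged per switch-domain sequence. Cy3-labelled switching-strand clusters on a modified Illumina MiSeq flow-cell were annealed to 100 nM quencher-labelled ATP aptamer, then imaged in selection buffer and again after 15 min with 500 uM ATP at 22 °C. Five such cycles were run, with NaOH stripping and re-annealing between them, and clusters outside 100-1000 RFU were excluded.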
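Further: ATP exposure 15 min at 22 °C before imaging.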

| Sequence | switch fluorescence ratio |
| --- | --- |
| ATCAGTTAAT | 0.996 ± 0.032 |
| ATCAGTTTGG | 1.01 ± 0.015 |
| ATCATAGGAT | 1.0329 ± 0.00082 |
| ATCATATATC | 0.983 ± 0.089 |
| ATCATGCGCT | 0.9964 ± 0.0092 |
| ATCATGCGGC | 0.983 ± 0.014 |
| ATCATGGAGG | 0.993 ± 0.017 |
| ATCATGGCGG | 0.99 ± 0.017 |
| ATCATTAGAA | 0.976 ± 0.031 |
| ATCATTATAT | 0.99007 ± 0.00051 |
| ATCATTATTG | 1 ± 0.013 |
| ATCCCCATGG | 1.91 ± 0.051 |
| ATCCCCGGCC | 1.03 ± 0.022 |
| ATCCGAGATG | 1.034 ± 0.0074 |
| ATCCGGGTTC | 1 ± 0.015 |
| ATCCGTTTTG | 0.986 ± 0.02 |
| ATCCTACAGC | 1.1 ± 0.025 |
| ATCCTATTGT | 1.03 ± 0.036 |
| ATCCTCGATT | 0.964 ± 0.0095 |
| ATCCTGCAGT | 1.15 ± 0.031 |
| ATCGAAGAGG | 0.995 ± 0.048 |
| ATCGAAGGGG | 0.981 ± 0.065 |
| ATCGAATAGC | 1.02 ± 0.034 |
| ATCGACGGGG | 1.01 ± 0.01 |
| ATCGACGTTT | 1.03 ± 0.055 |
| ATCGATATAT | 0.991 ± 0.036 |

| Sequence | switch fluorescence ratio |
| --- | --- |
| ATCGATCTGG | 1 ± 0.015 |
| ATCGCAGCTC | 1.62 ± 0.017 |
| ATCGCAGGCG | 1.035 ± 0.0068 |
| ATCGCATGTC | 1.23 ± 0.094 |
| ATCGCCATCC | 1.235 ± 0.0026 |
| ATCGCCTTGC | 1.163 ± 0.001 |
| ATCGCGTTGG | 0.983 ± 0.027 |
| ATCGGAAACT | 1.03 ± 0.039 |
| ATCGGAAGAA | 1.01 ± 0.017 |
| ATCGGAAGCG | 1.03 ± 0.011 |
| ATCGGAATGG | 1.05 ± 0.024 |
| ATCGGACTTG | 0.977 ± 0.033 |
| ATCGGAGGTC | 0.978 ± 0.037 |
| ATCGGAGTAT | 0.996 ± 0.034 |
| ATCGGATTTT | 1.17 ± 0.22 |
| ATCGGCGTAT | 1.01 ± 0.012 |
| ATCGGGAATG | 1.019 ± 0.0018 |
| ATCGGGACGG | 0.9829 ± 0.0029 |
| ATCGGGAGAG | 1.05 ± 0.026 |
| ATCGGGAGGA | 1 ± 0.029 |
| ATCGGGGGGA | 0.986 ± 0.034 |
| ATCGGGGGGG | 1 ± 0.035 |
| ATCGGGGTAG | 0.9985 ± 0.0038 |
| ATCGGGGTGC | 1.03 ± 0.016 |
| ATCGGTGGTG | 0.9839 ± 0.0058 |
| ATCGTAAGGG | 0.983 ± 0.038 |

| Sequence | switch fluorescence ratio |
| --- | --- |
| ATCGTAATTT | 0.971 ± 0.062 |
| ATCGTCAGAA | 0.969 ± 0.0068 |
| ATCGTCGTGC | 0.975 ± 0.015 |
| ATCGTGAGGC | 1.05 ± 0.022 |
| ATCGTGTG | 1.01 ± 0.038 |
| ATCGTGTTTG | 0.952 ± 0.043 |
| ATCGTTCGGC | 0.976 ± 0.037 |
| ATCGTTCTGC | 1.1 ± 0.019 |
| ATCGTTTATT | 0.99436 ± 0.00033 |
| ATCGTTTTTT | 0.973 ± 0.018 |
| ATCTAAGTTC | 1.01 ± 0.017 |
| ATCTAGCGGA | 1.02 ± 0.022 |
| ATCTAGGCAG | 0.9915 ± 0.0043 |
| ATCTATCCAC | 1.09 ± 0.037 |
| ATCTATCTTG | 0.9777 ± 0.0012 |
| ATCTATGCTT | 0.989 ± 0.023 |
| ATCTATGGGT | 0.987 ± 0.01 |
| ATCTATTAGC | 0.9896 ± 0.009 |
| ATCTATTGGG | 0.991 ± 0.0066 |
| ATCTATTGTG | 0.974 ± 0.013 |
| ATCTCGGATT | 0.9869 ± 0.0041 |
| ATCTCGGCCG | 0.9864 ± 0.0012 |
| ATCTCGGGCT | 0.973 ± 0.042 |
| ATCTGAATTG | 0.988 ± 0.013 |
| ATCTGCGCGC | 0.992 ± 0.011 |
| ATCTGGGGGA | 0.979 ± 0.046 |

| Sequence | switch fluorescence ratio |
| --- | --- |
| ATCTGGGGTG | 1.02 ± 0.03 |
| ATCTGTACGA | 1.02 ± 0.027 |
| ATCTGTGATA | 0.977 ± 0.048 |
| ATCTGTGATG | 0.987 ± 0.024 |
| ATCTGTTTTG | 1.02 ± 0.049 |
| ATCTTAAGAT | 0.984 ± 0.066 |
| ATCTTAAGTA | 0.9977 ± 0.0091 |
| ATCTTAGGGT | 0.978 ± 0.039 |
| ATCTTAGGTT | 1.03 ± 0.096 |
| ATCTTCAACT | 1.052 ± 0.01 |
| ATCTTCCCCC | 1.55 ± 0.016 |
| ATCTTGGCAG | 0.968 ± 0.034 |
| ATCTTGGTTG | 1 ± 0.026 |
| ATCTTTGCTA | 1 ± 0.036 |
| ATGAAAAATT | 1.01 ± 0.031 |
| ATGAAAACGT | 1 ± 0.014 |
| ATGAAAGCAC | 1.09 ± 0.061 |
| ATGAAATAGT | 0.959 ± 0.046 |
| ATGAACATTT | 1 ± 0.033 |
| ATGAAGATTA | 0.987 ± 0.043 |
| ATGAAGTCGC | 1.01 ± 0.025 |
| ATGAATCTCG | 0.9898 ± 0.0075 |
| ATGACGCGGA | 1.048 ± 0.0097 |
| ATGACTTACG | 1.08 ± 0.02 |
| ATGAGAAGTT | 1.01 ± 0.007 |
| ATGAGATCAG | 1.003 ± 0.005 |

| Sequence | switch fluorescence ratio |
| --- | --- |
| ATGAGCATGG | 1.1 ± 0.016 |
| ATGAGCCACT | 0.994 ± 0.03 |
| ATGAGCGACG | 0.9921 ± 0.0088 |
| ATGAGGAGTT | 0.996 ± 0.025 |
| ATGAGGCCTT | 1.01 ± 0.019 |
| ATGAGGGCTA | 0.983 ± 0.044 |
| ATGAGGGGAA | 1.04 ± 0.034 |
| ATGAGTACAG | 1.02 ± 0.027 |
| ATGAGTGTGG | 1.02 ± 0.021 |
| ATGATATCTA | 0.993 ± 0.022 |
| ATGATATGGT | 0.983 ± 0.029 |
| ATGATCGATG | 0.979 ± 0.026 |
| ATGATCGGGT | 1.02 ± 0.031 |
| ATGATGGGT | 1.01 ± 0.028 |
| ATGATTAAGA | 1.02 ± 0.019 |
| ATGATTGGAT | 0.996 ± 0.029 |
| ATGATTGGTT | 1 ± 0.022 |
| ATGATTGTGG | 0.997 ± 0.028 |
| ATGATTTAAC | 0.976 ± 0.035 |
| ATGATTTGGT | 0.983 ± 0.026 |
| ATGATTTTTT | 0.985 ± 0.012 |
| ATGCAAATGC | 1.41 ± 0.017 |
| ATGCAAGGTC | 1.12 ± 0.049 |
| ATGCACCTCG | 1.025 ± 0.006 |
| ATGCAGATCC | 1.04 ± 0.042 |
| ATGCATATGG | 1.03 ± 0.013 |

| Sequence | switch fluorescence ratio |
| --- | --- |
| ATGCATTTTA | 0.999 ± 0.045 |
| ATGCATTTTT | 1.02 ± 0.043 |
| ATGCCAAAGG | 1.01 ± 0.055 |
| ATGCCATTAG | 0.967 ± 0.02 |
| ATGCCTGATA | 0.963 ± 0.029 |
| ATGCGAGCAA | 1.11 ± 0.019 |
| ATGCGATCAA | 1.02 ± 0.014 |
| ATGCGGACAG | 1.011 ± 0.0083 |
| ATGCGGGTTC | 1.01 ± 0.012 |
| ATGCGGTCTG | 1.04 ± 0.028 |
| ATGCTATACT | 1.6 ± 0.022 |
| ATGCTCTTAT | 1 ± 0.012 |
| ATGCTGGTGG | 0.978 ± 0.046 |
| ATGCTGTCTG | 1 ± 0.043 |
| ATGCTTAGGG | 0.944 ± 0.02 |
| ATGGAAGAGG | 0.982 ± 0.018 |
| ATGGAATTGT | 0.986 ± 0.022 |
| ATGGACAGGT | 1.04 ± 0.031 |
| ATGGAGAGAG | 0.9929 ± 0.004 |
| ATGGAGTAAA | 1.005 ± 0.0084 |
| ATGGAGTCGG | 0.986 ± 0.021 |
| ATGGATAGTC | 0.986 ± 0.044 |
| ATGGATATAT | 0.995 ± 0.016 |
